Data as given in patent US20220064312A1 (SHIONOGI, published 2022).
Where two headings read alike, the source gives them in different places.

Assays:
human CCR8 [1] = target: T1, human CCR8 (human, UniProt P51685 1-355); assay: cell-based or functional assay
hCCR8 (I20A) = target: T2, hCCR8 (I20A) (human, UniProt P51685 1-355); assay: flow cytometry, transfected Expi293 cells
T2 construct: also called hCCR8 (120A)
Protocol: (§1) In addition to the chimeras of human CCR4 and the point mutants at the N-terminal region of human CCR8 produced in Example 3, binding evaluation was also performed for point mutants at loop1 and loop2 regions of human CCR8. […] After reacting at room temperature for 3 hours, it was reacted with Alexa488-labeled Anti-human IgG antibody (Thermo Fisher Scientific) and flow cytometry analysis was performed.
(§2) In comparison to human CCR8, a mutant having binding activity of 70% or less was indicated as Δ and a mutant having binding activity of 20% or less was indicated as x.

hCCR8 (L181A) = hCCR8 (L181A) (human, UniProt P51685 1-355); assay: flow cytometry, transfected Expi293 cells
Protocol: as §1, §2

hCCR8 (K35A) [2] = target: T3, hCCR8 (K35A) (human, UniProt P51685 1-355); assay: flow cytometry, transfected Expi293 cells
Protocol: as §1, §2

hCCR8 (L5A) = target: T4, hCCR8 (L5A) (human, UniProt P51685 1-355); assay: flow cytometry, transfected Expi293 cells
T4 construct: also called hCCR8 (LSA)
Protocol: as §1, §2

hCCR8 (S22A) = hCCR8 (S22A) (human, UniProt P51685 1-355); assay: flow cytometry, transfected Expi293 cells
Protocol: as §1, §2

hCCR8 (T32A) = target: T5, hCCR8 (T32A) (human, UniProt P51685 1-355); assay: flow cytometry, transfected Expi293 cells
T5 construct: also called hCCR8 (132A)
Protocol: as §1, §2

hCCR8 (N188A) = hCCR8 (N188A) (human, UniProt P51685 1-355); assay: flow cytometry, transfected Expi293 cells
Protocol: as §1, §2

loop2 hCCR4-hCCR8 [3] = target: T6, loop2 hCCR4-hCCR8 (human, UniProt P51685 1-355); assay: flow cytometry, transfected Expi293 cells
T6 construct: chimera on Expi293 cells; hCCR8 ranges derived; also called loop2-human CCR4-substituted human CCR8
Protocol: as §1, §2

hCCR8 (D97A) = hCCR8 (D97A) (human, UniProt P51685 1-355); assay: flow cytometry, transfected Expi293 cells
Protocol: as §1, §2

loop1 hCCR4-hCCR8 [4] = target: T7, loop1 hCCR4-hCCR8 (human, UniProt P51685 1-355); assay: flow cytometry, transfected Expi293 cells
T7 construct: chimera on Expi293 cells; hCCR8 ranges derived; also called loop 1-human CCR4-substituted human CCR8
Protocol: as §1, §2

hCCR8 (V180A) = hCCR8 (V180A) (human, UniProt P51685 1-355); assay: flow cytometry, transfected Expi293 cells
Protocol: as §1, §2

human CCR8 [5] = target: T1, human CCR8; assay: cell-based or functional assay; remark: listed apart in the source
human CCR8 [6] = target: T1, human CCR8; assay: cell-based or functional assay; remark: listed apart in the source
human CCR8 [7] = target: T1, human CCR8; assay: cell-based or functional assay; remark: listed apart in the source
mouse CCR8 = target: T8, mouse CCR8 (mouse, UniProt P56484 1-353); assay: flow cytometry, transfected Expi293 cells
T8 construct: also called mCCR8
T8 sequence: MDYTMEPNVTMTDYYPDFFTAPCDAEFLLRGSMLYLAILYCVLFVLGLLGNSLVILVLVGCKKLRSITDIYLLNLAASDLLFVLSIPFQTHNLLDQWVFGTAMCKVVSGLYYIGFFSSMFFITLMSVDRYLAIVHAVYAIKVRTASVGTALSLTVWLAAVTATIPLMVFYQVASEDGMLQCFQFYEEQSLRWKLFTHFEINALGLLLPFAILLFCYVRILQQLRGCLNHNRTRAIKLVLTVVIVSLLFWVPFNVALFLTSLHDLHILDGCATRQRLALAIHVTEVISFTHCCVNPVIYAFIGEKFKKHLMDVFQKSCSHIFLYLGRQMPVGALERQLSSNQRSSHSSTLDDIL

N-ter hCCR4-hCCR8 = target: T9, N-ter hCCR4-hCCR8 (human); assay: flow cytometry, transfected Expi293 cells
T9 construct: chimera on Expi293 cells; remaining hCCR8 ranges derived from the stated swapped ranges and the 355-residue length; also called N-terminal region human CCR4-substituted human CCR8
T9 chain: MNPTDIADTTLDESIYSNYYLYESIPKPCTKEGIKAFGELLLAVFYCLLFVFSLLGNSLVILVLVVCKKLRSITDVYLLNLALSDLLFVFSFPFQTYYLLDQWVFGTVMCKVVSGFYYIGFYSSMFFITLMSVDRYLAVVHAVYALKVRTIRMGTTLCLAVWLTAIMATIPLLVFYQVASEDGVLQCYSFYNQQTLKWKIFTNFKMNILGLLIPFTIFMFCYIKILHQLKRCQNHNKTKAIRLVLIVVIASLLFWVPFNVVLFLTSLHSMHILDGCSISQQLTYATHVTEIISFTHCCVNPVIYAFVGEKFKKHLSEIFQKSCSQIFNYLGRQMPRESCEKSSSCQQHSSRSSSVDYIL

hCCR8 (K35A) [8] = target: T3, hCCR8 (K35A); assay: flow cytometry, transfected Expi293 cells; remark: listed apart in the source
human CCR4 = target: T10, human CCR4 (human, UniProt P51679 1-360); assay: flow cytometry, transfected Expi293 cells
T10 construct: also called hCCR4
T10 sequence: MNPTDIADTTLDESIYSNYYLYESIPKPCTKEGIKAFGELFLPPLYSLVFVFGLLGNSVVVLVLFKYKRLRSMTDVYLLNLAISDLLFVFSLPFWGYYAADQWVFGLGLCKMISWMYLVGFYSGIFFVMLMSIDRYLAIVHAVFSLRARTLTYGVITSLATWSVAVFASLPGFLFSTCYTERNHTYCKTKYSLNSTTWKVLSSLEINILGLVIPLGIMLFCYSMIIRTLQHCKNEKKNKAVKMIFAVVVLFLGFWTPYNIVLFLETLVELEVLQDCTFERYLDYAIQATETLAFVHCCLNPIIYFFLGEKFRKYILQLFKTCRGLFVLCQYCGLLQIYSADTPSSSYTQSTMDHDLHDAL

hCCR8 (Y17A) = hCCR8 (Y17A) (human, UniProt P51685 1-355); assay: flow cytometry, transfected Expi293 cells
loop2 hCCR4-hCCR8 [9] = target: T6, loop2 hCCR4-hCCR8; assay: flow cytometry, transfected Expi293 cells; Δ = significantly reduced vs hCCR8
loop1 hCCR4-hCCR8 [10] = target: T7, loop1 hCCR4-hCCR8; assay: as above
hCCR8 (T13A) = hCCR8 (T13A) (human, UniProt P51685 1-355); assay: flow cytometry, transfected Expi293 cells
Protocol: as §1, §2

hCCR8 (Y15A) = hCCR8 (Y15A) (human, UniProt P51685 1-355); assay: flow cytometry, transfected Expi293 cells
Protocol: as §1, §2

hCCR8 (S23A) = hCCR8 (S23A) (human, UniProt P51685 1-355); assay: flow cytometry, transfected Expi293 cells
Protocol: as §1, §2

hCCR8 (K193A) = hCCR8 (K193A) (human, UniProt P51685 1-355); assay: flow cytometry, transfected Expi293 cells
Protocol: as §1, §2

hCCR8 (L29A) = hCCR8 (L29A) (human, UniProt P51685 1-355); assay: flow cytometry, transfected Expi293 cells
Protocol: as §1, §2

hCCR8 (T10A) = hCCR8 (T10A) (human, UniProt P51685 1-355); assay: flow cytometry, transfected Expi293 cells
Protocol: as §1, §2

hCCR8 (T11A) = hCCR8 (T11A) (human, UniProt P51685 1-355); assay: flow cytometry, transfected Expi293 cells
Protocol: as §1, §2

loop3 hCCR4-hCCR8 = target: T11, loop3 hCCR4-hCCR8 (human, UniProt P51685 1-355); assay: flow cytometry, transfected Expi293 cells
T11 construct: chimera on Expi293 cells; hCCR8 ranges derived
Protocol: as §1, §2

T1 sequence (P51685 whole entry): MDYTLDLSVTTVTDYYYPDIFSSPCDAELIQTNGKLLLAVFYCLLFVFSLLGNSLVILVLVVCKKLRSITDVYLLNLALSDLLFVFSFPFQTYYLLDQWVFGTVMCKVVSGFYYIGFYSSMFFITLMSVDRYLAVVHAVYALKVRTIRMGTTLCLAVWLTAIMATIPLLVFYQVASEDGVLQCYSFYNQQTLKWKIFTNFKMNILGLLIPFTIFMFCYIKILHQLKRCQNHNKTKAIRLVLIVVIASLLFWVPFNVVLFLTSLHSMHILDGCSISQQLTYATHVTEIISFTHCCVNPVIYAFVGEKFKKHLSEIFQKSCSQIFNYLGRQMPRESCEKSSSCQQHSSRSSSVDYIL
Chain of hCCR8 (Y17A) (P51685 whole entry Y17A): as the sequence (P51685 whole entry) above, with Y17A counted along it

B1: h10A11 (IGKV4-1/IGHV3-15 T94R) (antibody, V domains shown)
VH: EVQLVESGGALVKPGGSLRLSCAASGFTFSTYALYWVRQAPGKGLEWVGRIRSKSNNYATYYADSVKDRFTISRDDSKNTLYLQMNSLKTEDTAVYYCTRARFYYSDYGYAMDYWGQGTLVTVSS
VL: DIVMTQSPDSLAVSLGERATINCRSSKSLLHSNGNTYLYWYQQKPGQPPKLLIYRMSNLASGVPDRFSGSGSGTDFTLTISSLQAEDVAVYYCMQHLEYPLTFGQGTKLEIKR
notes: humanized; detected with anti-human IgG; also called humanized 10A11 antibody (light chain variable region: IGKV4-1/heavy chain variable region: IGHV3-15 T94R)
- IC50 ratio (WT IC50/mutant IC50) (human CCR8 [1]): 1 ratio
- binding activity in comparison to human CCR8 (hCCR8 (I20A)): ≤ 70%
- binding activity in comparison to human CCR8 (hCCR8 (L181A)): ≤ 70%
- binding activity in comparison to human CCR8 (hCCR8 (K35A) [2]): ≤ 70%
- binding activity in comparison to human CCR8 (hCCR8 (L5A)): ≤ 70%
- binding activity in comparison to human CCR8 (hCCR8 (S22A)): ≤ 70%
- binding activity in comparison to human CCR8 (hCCR8 (T32A)): ≤ 70%
- binding activity in comparison to human CCR8 (hCCR8 (N188A)): ≤ 70%
- binding activity in comparison to human CCR8 (loop2 hCCR4-hCCR8 [3]): ≤ 70%
- binding activity in comparison to human CCR8 (hCCR8 (D97A)): ≤ 70%
- binding activity in comparison to human CCR8 (loop1 hCCR4-hCCR8 [4]): ≤ 70%
- binding activity in comparison to human CCR8 (hCCR8 (V180A)): ≤ 70%
- IC50 (nM), Ca2+ influx by 200 nM hCCL1 (human CCR8 [5]): 0.15 nM

B2: 1H4 (antibody, V domains shown)
VH: EVQLVESGGRLVQPKGSLKLSCAASGFTFNTYAMYWIRQAPGKGLEWVARIRSKSNNYATYYADSVKDRFTISRDDSQSMLYLQMNNLKTEDTAMYYCVRARFYYSDYGYAMDYWGQGTSVTVSS
VL: DIVMTQAAPSVPVTPGESVSISCRSSKSLLHSNGNTYLYWFLQRPGQSPQLLIYRMSNLASGVPDRFSASGSGTAFTLRISRVEAEDVGVYYCMQHLEYPLTFGAGTKLELKR
notes: mouse hybridoma antibody
- IC50 (nM), Ca2+ influx by 200 nM hCCL1 (human CCR8 [6]): 0.36 nM
- Neutralizing Activity IC50 (nM), Ca2+ influx by 100 nM hCCL1 (human CCR8 [7]): 0.32 nM
- binding result (mouse CCR8): no binding
- binding result (N-ter hCCR4-hCCR8): no binding
- binding result (hCCR8 (K35A) [8]): no binding
- binding result (human CCR4): no binding
- binding result (hCCR8 (Y17A)): no binding
- binding result (loop2 hCCR4-hCCR8 [9]): binds
- binding result (loop1 hCCR4-hCCR8 [10]): binds

B3: h19D7 (IGKV3-20/IGHV3-15 T94R) (antibody, V domains shown)
VH: EVQLVESGGALVKPGGSLRLSCAASGFTFSTYAMYWVRQAPGKGLEWVGRIRSKSNNYATYYADSVKDRFTISRDDSKNTLYLQMNSLKTEDTAVYYCTRGGYGNYRYAMDYWGQGTTVTVSS
VL: EIVLTQSPGTLSLSPGERATLSCRSSKSLLHSNGNTYLYWYQQKPGQAPRLLIYRVSNLASGIPDRFSGSGSGTDFTLTISRLEPEDFAVYYCMQHLEYPFTFGQGTKLEIK
notes: humanized; detected with anti-human IgG
- binding activity in comparison to human CCR8 (hCCR8 (T13A)): ≤ 70%
- binding activity in comparison to human CCR8 (hCCR8 (I20A)): ≤ 70%
- binding activity in comparison to human CCR8 (hCCR8 (Y15A)): ≤ 70%
- binding activity in comparison to human CCR8 (hCCR8 (S23A)): ≤ 70%
- binding activity in comparison to human CCR8 (hCCR8 (L181A)): ≤ 70%
- binding activity in comparison to human CCR8 (hCCR8 (K35A) [2]): ≤ 70%
- binding activity in comparison to human CCR8 (hCCR8 (K193A)): ≤ 70%
- binding activity in comparison to human CCR8 (hCCR8 (L5A)): ≤ 70%
- binding activity in comparison to human CCR8 (hCCR8 (S22A)): ≤ 70%
- binding activity in comparison to human CCR8 (hCCR8 (L29A)): ≤ 70%
- binding activity in comparison to human CCR8 (hCCR8 (T10A)): ≤ 70%
- binding activity in comparison to human CCR8 (hCCR8 (N188A)): ≤ 70%
- binding activity in comparison to human CCR8 (loop2 hCCR4-hCCR8 [3]): ≤ 70%
- binding activity in comparison to human CCR8 (hCCR8 (T11A)): ≤ 70%
- binding activity in comparison to human CCR8 (loop3 hCCR4-hCCR8): ≤ 70%
- binding activity in comparison to human CCR8 (loop1 hCCR4-hCCR8 [4]): ≤ 70%
